Experiment [1] concerns the target C-terminal 6xHis tagged IL-18Rβ extracellular domains (residues 15-356), for SPR (human) (UniProt O95256). The experiment is described as follows: SPR; BIAcore 3000, 25 °C, C-terminal 6xHis IL-18Rβ immobilised (~100 RU) on an NTA sensor chip, un-tagged IL-18Rα saturated with 500 nM IL-18 as analyte in HBS-P. On the technique in general: Surface plasmon resonance follows binding to a sensor surface in real time, without labels.

Experiment [2] has as its target T1, IL-18 receptor β extracellular domains (residues 15-356), construct for crystallography (human, UniProt O95256-1 15-356).
T1 construct: human IL-18 receptor β, extracellular domains, residues 15-356 of NM_003853; also called IL-18Rβ; source: Sf9 insect cells, secreted, purified (ion exchange, Ni-NTA, gel filtration with or without HRV 3C treatment)
T1 sequence (looked up): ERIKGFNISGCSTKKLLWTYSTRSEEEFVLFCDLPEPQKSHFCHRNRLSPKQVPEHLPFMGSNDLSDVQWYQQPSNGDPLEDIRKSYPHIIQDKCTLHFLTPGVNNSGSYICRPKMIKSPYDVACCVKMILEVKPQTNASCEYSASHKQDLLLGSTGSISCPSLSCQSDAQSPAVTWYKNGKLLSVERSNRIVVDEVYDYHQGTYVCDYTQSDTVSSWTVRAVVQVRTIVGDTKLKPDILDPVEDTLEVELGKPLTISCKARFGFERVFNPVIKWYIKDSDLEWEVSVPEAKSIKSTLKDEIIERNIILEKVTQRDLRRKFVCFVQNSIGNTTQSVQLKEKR
The experiment is described as follows: crystal structure; IL-18/IL-18Rα/IL-18Rβ ternary complex, 3.10 Å, one copy in the asymmetric unit, data at 100 K (PDB 3WO4). The conditions noted are these: both partners purified.

Experiment [3] has as its target T2, preformed binary complex of IL-18 wild type and un-tagged IL-18Rα wild type extracellular domain (human, UniProt Q14116 37-193; Q13478 20-329).
T2 construct: interleukin-18, human, mature IL-18 (residues 1-157); numbers count on: the mature protein; IL-18 receptor alpha, human, extracellular domains, residues 20-329 of NM_003855; also called IL-18 WT/IL-18Rα WT complex; IL-18/IL-18Rα; source: IL-18: E. coli BL21(DE3), purified; IL-18Rα: silkworm larvae haemolymph, purified; un-tagged IL-18Rα saturated with 500 nM IL-18
The experiment is described as follows: SPR; BIAcore 3000, 25 °C; C-terminal 6xHis IL-18Rβ (wild type or mutant) immobilised at about 100 RU on a Ni-NTA sensor chip; un-tagged IL-18Rα saturated with 500 nM IL-18 (preformed binary complex) injected as analyte in HBS-P; triplicate. The conditions noted are these: both partners purified.

Experiment [4] has as its target T3, preformed binary complex of IL-18 wild type and un-tagged IL-18Rα N236Q extracellular domain (human, UniProt Q14116 37-193; Q13478 20-329, N236Q).
T3 construct: interleukin-18, human, mature IL-18 (residues 1-157); numbers count on: the mature protein; IL-18 receptor alpha, human, extracellular domains, residues 20-329 of NM_003855; lacks the N-linked sugar chain on N236; also called IL-18WT/IL-18Rα mutant complex; IL18/IL18Rα-N236Q; source: IL-18: E. coli BL21(DE3), purified; IL-18Rα: silkworm larvae haemolymph, purified; un-tagged IL-18Rα saturated …
The experiment is described as above. The note with it: both partners purified.

Experiment [5] concerns the target T4, IL-18 WT/IL-18Rα WT complex (SPR analyte) (human, UniProt Q14116 37-193; Q13478 20-329).
T4 construct: human interleukin-18, mature IL-18 (residues 1-157); numbers count on: the mature protein; human IL-18 receptor α, extracellular domains, residues 20-329 of NM_003855, printed as un-tagged; also called IL-18/IL-18Rα binary complex; IL-18 WT(control); source: IL-18: E. coli BL21(DE3), purified; IL-18Rα: silkworm larvae haemolymph, purified; un-tagged IL-18Rα saturated with 500 nM IL-18
The experiment is described as follows: SPR; BIAcore 3000, 25 °C, C-terminal 6xHis IL-18Rβ immobilised (~100 RU) on an NTA sensor chip, un-tagged IL-18Rα saturated with 500 nM IL-18 as analyte in HBS-P. The conditions noted are these: both partners purified.

Experiment [6] concerns the target T5, IL-18WT/IL-18Rα N236Q complex (SPR analyte) (human, UniProt Q14116 37-193; Q13478 20-329, N236Q).
T5 construct: human interleukin-18, mature IL-18 (residues 1-157); numbers count on: the mature protein; human IL-18 receptor α, extracellular domains, residues 20-329 of NM_003855, used instead of the un-tagged wild type; The mutation removes the N-linked sugar chain at Asn236; also called N236Q^Rα; source: IL-18: E. coli BL21(DE3), purified; IL-18Rα mutant: silkworm larvae haemolymph, purified; IL-18Rα …
The experiment is described as above. The conditions noted are these: both partners purified.

Residue numbers refer to the chain shown, from its start. In names and notes the source's numbering stands.

For orientation: Kd means the constant that tells how readily two partners part at equilibrium. High values mean lower affinity, low ones higher affinity. Take “IL-18 R147A/IL-18Rα WT complex (SPR analyte) (from UniProt Q13478 20-329)”: the dissociation constant Kd in experiment [1] was determined as 57 nM.
Turning to “IL-18 G145A/IL-18Rα WT complex (SPR analyte) (from UniProt Q13478 20-329)”, the Kd in experiment [1] was 28 nM.
Molecule “IL-18 D110A/IL-18Rα WT complex (SPR analyte) (from UniProt Q13478 20-329)” came in with an equilibrium dissociation constant (Kd) in experiment [1] of 56 nM.

B1: IL-18 receptor α extracellular domains (residues 20-329), construct for crystallography (domain or fragment, human, UniProt Q13478 20-329, looked up)
chain: ESCTSRPHITVVEGEPFYLKHCSCSLAHEIETTTKSWYKSSGSQEHVELNPRSSSRIALHDCVLEFWPVELNDTGSYFFQMKNYTQKWKLNVIRRNKHSCFTERQVTSKIVEVKKFFQITCENSYYQTLVNSTSLYKNCKKLLLENNKNPTIKKNAEFEDQGYYSCVHFLHHNGKLFNITKTFNITIVEDRSNIVPVLLGPKLNHVAVELGKNVRLNCSALLNEEDVIYWMFGEENGSDPNIHEEKEMRIMTPEGKWHASKVLRIENIGESNLNVLYNCTVASTGGTDTKSFILVRKADMADIPGHVFTR
modifications: N-linked glycosyl chains at Asn91, 102, 150, 197, 203, 236 and 297 (high-mannose glycans, Sf9)
notes: human IL-18 receptor α, extracellular domains, residues 20-329 of NM_003855; also called IL-18Rα; source: Sf9 insect cells, secreted, purified (ion exchange, Ni-NTA, gel filtration with or without HRV 3C treatment)
As to B1, the binding result in experiment [2] is “binds”.

B2: human IL-18 receptor beta extracellular domain (residues 15-356), C-terminal 6xHis, wild type, from silkworm (receptor, UniProt O95256-1 15-356, looked up)
chain: T1 sequence (looked up)
notes: IL-18 receptor beta, human, extracellular domains, residues 15-356 of NM_003853; also called IL-18Rβ; IL-18Rβ WT; source: silkworm (B. mori) larvae, BmNPV bacmid, haemolymph, purified (ion exchange, Ni-NTA, gel filtration); not shown: 6xHis, C-terminal, kept
What is called kon is the rate constant with which the complex forms. A lower kon goes with slower complex formation. As for B2, the association rate constant (kon) in experiment [3] is 11000 M⁻¹ s⁻¹; in experiment [4], 12000 M⁻¹ s⁻¹.

B3: IL-18Rβ K313A, C-terminal 6xHis tagged extracellular domains (residues 15-356), for SPR (domain or fragment, human, UniProt O95256-1 15-356, looked up)
chain: T1 sequence (looked up) with K299A
notes: human IL-18 receptor β, extracellular domains, residues 15-356 of NM_003853; In the luciferase reporter assay the same mutation stood in full-length IL-18Rβ (pcDNA3.1+) expressed in HEK293 cells; source: silkworm (B. mori) larvae, BmNPV bacmid, haemolymph, purified as from Sf9; not shown: 6xHis, C-terminal, kept
B3 had a Kd in experiment [5] of 109 nM.

B4: IL-18Rβ Y214A, C-terminal 6xHis tagged extracellular domains (residues 15-356), for SPR (domain or fragment, human, UniProt O95256-1 15-356, looked up)
chain: T1 sequence (looked up) with Y200A
notes: human IL-18 receptor β, extracellular domains, residues 15-356 of NM_003853; source: silkworm (B. mori) larvae, BmNPV bacmid, haemolymph, purified as from Sf9; not shown: 6xHis, C-terminal, kept
In experiment [5], B4 returned a dissociation constant Kd of 50 nM.

B5: IL-18Rβ E210A, C-terminal 6xHis tagged extracellular domains (residues 15-356), for SPR (domain or fragment, human, UniProt O95256-1 15-356, looked up)
chain: T1 sequence (looked up) with E196A
notes: as for B3
For B5, in experiment [5], the Kd was found to be 327 nM.

B6: IL-18Rβ L167A, C-terminal 6xHis tagged extracellular domains (residues 15-356), for SPR (domain or fragment, human, UniProt O95256-1 15-356, looked up)
chain: T1 sequence (looked up) with L153A
notes: as for B4
In turn, B6 displayed a dissociation constant Kd in experiment [5] of 33 nM.

B7: C-terminal 6xHis tagged IL-18Rβ extracellular domains (residues 15-356), for SPR (domain or fragment, human, UniProt O95256-1 15-356, looked up)
chain: T1 sequence (looked up)
notes: human IL-18 receptor β, extracellular domains, residues 15-356 of NM_003853; also called IL-18Rβ WT; IL-18Rβ WT (control); source: silkworm (B. mori) larvae, BmNPV bacmid, haemolymph, purified as from Sf9; not shown: 6xHis, C-terminal, kept
As to B7, the Kd in experiment [5] is 15 nM; in experiment [6] it was 17 nM.

The values above are taken from paper PMC4275594 (Nature Communications, 2014).
